Legend:
HeLa Kyoto [1] = test: solubility in G1/S (NP-40 vs SDS abundance) (log2 ratio); higher = more soluble; settings: cell cycle stage: G1/S
HeLa Kyoto [2] = test: thermal stability score vs G1/S (z-score of summed log2 fold changes over temperatures); higher = more thermally stable than in G1/S
HeLa Kyoto [3] = test: solubility change mitosis vs G1/S (difference of NP-40 vs SDS log2 ratios) (log2 ratio difference); higher = more soluble in mitosis
HeLa Kyoto [4] = test: melting temperature (median over replicates), in situ; higher = more thermally stable
[5] = cell cycle stage: early G1 (4.5 h after nocodazole release)
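Throughout, for melting temperature (median over replicates), in situ: HeLa Kyoto cells synchronized by double thymidine or nocodazole block, proteins quantified by TMT10plex mass spectrometry, three independent biological replicates.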
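Throughout, for solubility change mitosis vs G1/S (difference of NP-40 vs SDS log2 ratios): synchronized HeLa Kyoto cells (double thymidine block for G1/S, nocodazole release for mitosis), protein amounts in NP-40 versus SDS lysates quantified by mass spectrometry, three biological replicates.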
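Throughout, for solubility in G1/S (NP-40 vs SDS abundance): HeLa Kyoto cells arrested at G1/S by double thymidine block, proteins quantified by TMT10plex mass spectrometry in mild NP-40 versus SDS extracts, three biological replicates.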
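Throughout, for thermal stability score vs G1/S (z-score of summed log2 fold changes over temperatures): synchronized HeLa Kyoto cells, proteins quantified by TMT10plex mass spectrometry, three biological replicates, mitosis taken 0.5 h after nocodazole release, G1/S directly after double thymidine block.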

Sequence	solubility in G1/S (log2) (HeLa Kyoto [1])	thermal stability score (HeLa Kyoto [2]; [5])	thermal stability score (HeLa Kyoto [2]; cell cycle stage: mitosis)	solubility change mitosis (log2) (HeLa Kyoto [3])	melting temperature (HeLa Kyoto [4]; cell cycle stage: G1/S) [°C]	melting temperature (HeLa Kyoto [4]; cell cycle stage: mitosis) [°C]
MSAPDEGRRDPPKPKGKTLGSFFGSLPGFSSARNLVANAHSSARARPAADPTGAPAAEAAQPQAQVAAHPEQTAPWTEKELQPSEKMVSGAKDLVCSKMSRAKDAVSSGVASVVDVAKGVVQGGLDTTRSALTGTKEVVSSGVTGAMDMAKGAVQGGLDTSKAVLTGTKDTVSTGLTGAVNVAKGTVQAGVDTTKTVLTGTKDTVTTGVMGAVNLAKGTVQTGVETSKAVLTGTKDAVSTGLTGAVNVARGSIQTGVDTSKTVLTGTKDTVCSGVTGAMNVAKGTIQTGVDTSKTVLTGTKDTVCSGVTGAMNVAKGTIQTGVDTSKTVLTGTKDTVCSGVTGAMNVAKGTIQTGVDTTKTVLTGTKNTVCSGVTGAVNLAKEAIQGGLDTTKSMVMGTKDTMSTGLTGAANVAKGAMQTGLNTTQNIATGTKDTVCSGVTGAMNLARGTIQTGVDTTKIVLTGTKDTVCSGVTGAANVAKGAVQGGLDTTKSVLTGTKDAVSTGLTGAVNVAKGTVQTGVDTTKTVLTGTKDTVCSGVTSAVNVAKGAVQGGLDTTKSVVIGTKDTMSTGLTGAANVAKGAVQTGVDTAKTVLTGTKDTVTTGLVGAVNVAKGTVQTGMDTTKTVLTGTKDTIYSGVTSAVNVAKGAVQTGLKTTQNIATGTKNTFGSGVTSAVNVAKGAAQTGVDTAKTVLTGTKDTVTTGLMGAVNVAKGTVQTSVDTTKTVLTGTKDTVCSGVTGAANVAKGAIQGGLDTTKSVLTGTKDAVSTGLTGAVKLAKGTVQTGMDTTKTVLTGTKDAVCSGVTGAANVAKGAVQMGVDTAKTVLTGTKDTVCSGVTGAANVAKGAVQTGLKTTQNIATGTKNTLGSGVTGAAKVAKGAVQGGLDTTKSVLTGTKDAVSTGLTGAVNLAKGTVQTGVDTSKTVLTGTKDTVCSGVTGAVNVAKGTVQTGVDTAKTVLSGAKDAVTTGVTGAVNVAKGTVQTGVDASKAVLMGTKDTVFSGVTGAMSMAKGAVQGGLDTTKTVLTGTKDAVSAGLMGSGNVATGATHTGLSTFQNWLPSTPATSWGGLTSSRTTDNGGEQTALSPQEAPFSGISTPPDVLSVGPEPAWEAAATTKGLATDVATFTQGAAPGREDTGLLATTHGPEEAPRLAMLQNELEGLGDIFHPMNAEEQAQLAASQPGPKVLSAEQGSYFVRLGDLGPSFRQRAFEHAVSHLQHGQFQARDTLAQLQDCFRLIEKAQQAPEGQPRLDQGSGASAEDAAVQEERDAGVLSRVCGLLRQLHTAYSGLVSSLQGLPAELQQPVGRARHSLCELYGIVASAGSVEELPAERLVQSREGVHQAWQGLEQLLEGLQHNPPLSWLVGPFALPAGGQ [PLIN4]	0.21	1.29	2.31	-0.0221	52.4	52.3
MTVFFKTLRNHWKKTTAGLCLLTWGGHWLYGKHCDNLLRRAACQEAQVFGNQLIPPNAQVKKATVFLNPAACKGKARTLFEKNAAPILHLSGMDVTIVKTDYEGQAKKLLELMENTDVIIVAGGDGTLQEVVTGVLRRTDEATFSKIPIGFIPLGETSSLSHTLFAESGNKVQHITDATLAIVKGETVPLDVLQIKGEKEQPVFAMTGLRWGSFRDAGVKVSKYWYLGPLKIKAAHFFSTLKEWPQTHQASISYTGPTERPPNEPEETPVQRPSLYRRILRRLASYWAQPQDALSQEVSPEVWKDVQLSTIELSITTRNNQLDPTSKEDFLNICIEPDTISKGDFITIGSRKVRNPKLHVEGTECLQASQCTLLIPEGAGGSFSIDSEEYEAMPVEVKLLPRKLQFFCDPRKREQMLTSPTQ [AGK]	0.0337	-0.493	-1.02	-0.034	53.6	53.6
MVWPWVAMASRWGPLIGLAPCCLWLLGAVLLMDASARPANHSSTRERVANREENEILPPDHLNGVKLEMDGHLNRGFHQEVFLGKDLGGFDEDAEPRRSRRKLMVIFSKVDVNTDRKISAKEMQRWIMEKTAEHFQEAMEESKTHFRAVDPDGDGHVSWDEYKVKFLASKGHSEKEVADAIRLNEELKVDEETQEVLENLKDRWYQADSPPADLLLTEEEFLSFLHPEHSRGMLRFMVKEIVRDLDQDGDKQLSVPEFISLPVGTVENQQGQDIDDNWVKDRKKEFEELIDSNHDGIVTAEELESYMDPMNEYNALNEAKQMIAVADENQNHHLEPEEVLKYSEFFTGSKLVDYARSVHEEF [SDF4]	0.52	2.12	3	-0.0276	52.8	53.9
MRSGGRGRPRLRLGERGLMEPLLPPKRRLLPRVRLLPLLLALAVGSAFYTIWSGWHRRTEELPLGRELRVPLIGSLPEARLRRVVGQLDPQRLWSTYLRPLLVVRTPGSPGNLQVRKFLEATLRSLTAGWHVELDPFTASTPLGPVDFGNVVATLDPRAARHLTLACHYDSKLFPPGSTPFVGATDSAVPCALLLELAQALDLELSRAKKQAAPVTLQLLFLDGEEALKEWGPKDSLYGSRHLAQLMESIPHSPGPTRIQAIELFMLLDLLGAPNPTFYSHFPRTVRWFHRLRSIEKRLHRLNLLQSHPQEVMYFQPGEPFGSVEDDHIPFLRRGVPVLHLISTPFPAVWHTPADTEVNLHPPTVHNLCRILAVFLAEYLGL [QPCTL]	-0.29	3.48	4.18	0.00122	51.9	52.7
MRKVVLITGASSGIGLALCKRLLAEDDELHLCLACRNMSKAEAVCAALLASHPTAEVTIVQVDVSNLQSVFRASKELKQRFQRLDCIYLNAGIMPNPQLNIKALFFGLFSRKVIHMFSTAEGLLTQGDKITADGLQEVFETNVFGHFILIRELEPLLCHSDNPSQLIWTSSRSARKSNFSLEDFQHSKGKEPYSSSKYATDLLSVALNRNFNQQGLYSNVACPGTALTNLTYGILPPFIWTLLMPAILLLRFFANAFTLTPYNGTEALVWLFHQKPESLNPLIKYLSATTGFGRNYIMTQKMDLDEDTAEKFYQKLLELEKHIRVTIQKTDNQARLSGSCL [HSD17B7]	-0.113	-1.29	-0.53	-0.161	52.8	51
MSLYDDLGVETSDSKTEGWSKNFKLLQSQLQVKKAALTQAKSQRTKQSTVLAPVIDLKRGGSSDDRQIVDTPPHVAAGLKDPVPSGFSAGEVLIPLADEYDPMFPNDYEKVVKRQREERQRQRELERQKEIEEREKRRKDRHEASGFARRPDPDSDEDEDYERERRKRSMGGAAIAPPTSLVEKDKELPRDFPYEEDSRPRSQSSKAAIPPPVYEEQDRPRSPTGPSNSFLANMGGTVAHKIMQKYGFREGQGLGKHEQGLSTALSVEKTSKRGGKIIVGDATEKDASKKSDSNPLTEILKCPTKVVLLRNMVGAGEVDEDLEVETKEECEKYGKVGKCVIFEIPGAPDDEAVRIFLEFERVESAIKAVVDLNGRYFGGRVVKACFYNLDKFRVLDLAEQV [RBM17]	-0.32	0.948	4.62	0.318	48.3	49.3
MAAAAAGTATSQRFFQSFSDALIDEDPQAALEELTKALEQKPDDAQYYCQRAYCHILLGNYCVAVADAKKSLELNPNNSTAMLRKGICEYHEKNYAAALETFTEGQKLDIETGFHRVGQAGLQLLTSSDPPALDSQSAGITGADANFSVWIKRCQEAQNGSESEVWTHQSKIKYDWYQTESQVVITLMIKNVQKNDVNVEFSEKELSALVKLPSGEDYNLKLELLHPIIPEQSTFKVLSTKIEIKLKKPEAVRWEKLEGQGDVPTPKQFVADVKNLYPSSSPYTRNWDKLVGEIKEEEKNEKLEGDAALNRLFQQIYSDGSDEVKRAMNKSFMESGGTVLSTNWSDVGKRKVEINPPDDMEWKKY [SUGT1]	0.138	0.39	-0.171	-0.0323	51.5	52

From the supplement of paper PMC5998384
